The source of these data is publication PMC5677532 (Structure (London, England : 1993), 2017).

Several values for one entry are separate records, joined by “and”; a condition that tells them apart may be missing. Equal entries are not always repeated.

Data set [1] deals with the molecule itself. Briefly: SEC.
Data set [2] concerns the molecule itself. Briefly: SEC. The source holds these as a separate data set. (SEC sorts molecules by how far they enter the pores of the column.)
Data set [3] concerns the molecule itself. Briefly: SEC. This is another data set of the same source.
Data set [4] concerns the molecule itself. Description: SEC. The source holds these as a separate data set.
Data set [5] deals with the molecule itself. Description: native MS.
Data set [6] deals with the molecule itself. Briefly: native MS. The source holds these as a separate data set.

B1: Bsc4 S288C, C-terminally hexahistidine-tagged (natural protein, S. cerevisiae (strain S288C), UniProt P53841 2-131, looked up)
chain: SIVLRKSNKKNKNCITSKFYTIHIIKISTPVFRAPIAIGESPYVEWSCLQVVFRKDMVTKKTTFAQLITRLNHFLCQALKRRDSKTYILCRTAVFGAMTPFSPRKSHINNKLPMQPRKKKIVIIYVVRFH
One may read the stoichiometry N as the number of molecules, sites or subunits per partner or assembly. Consider B1, for which the figures for the “stoichiometry N” value in “SEC [1]” and in “SEC [2]” were 2 and at least 2, respectively.

B2: Bsc4 S288C, N-terminally hexahistidine-tagged (natural protein, S. cerevisiae (strain S288C), UniProt P53841 1-131, looked up)
chain: MSIVLRKSNKKNKNCITSKFYTIHIIKISTPVFRAPIAIGESPYVEWSCLQVVFRKDMVTKKTTFAQLITRLNHFLCQALKRRDSKTYILCRTAVFGAMTPFSPRKSHINNKLPMQPRKKKIVIIYVVRFH
As to B2, the binding result in “SEC [3]” is “binds”.

B3: Bsc4 EC1118, C-terminally hexahistidine-tagged (natural protein, S. cerevisiae (strain EC1118), UniProt P53841 2-121, looked up)
chain: SIVLRKSNKKNKNCITSKFYTIHIIKISTPVFRAPIAIGESPYVEWSCLQVVFRKDMVTKKTTFAQLITRLNHFLCQALKRRDSKTYILCRTAVFGAMTPFSPRKSHINNKLPMQPRKKK
On to B3, for which the “stoichiometry N” value was 4 in “SEC [4]”; 2 and 6 in “native MS [5]”; 7 and 8 in “native MS [6]”; at least 2 in “SEC [2]”.
